Source: patent US20190224274, “MIF INHIBITORS AND METHODS OF USE THEREOF” (The Johns Hopkins University, published 2019)
Positions count from the first letter of the chain named.

Key:
MIF [1] = molecular target: T1, MIF (Homo sapiens, UniProt P14174 P14174:1-115); assay: EMSA; 10 mM Mg2+; details: tags: GST tag removed (pGex-6P-1); chain copies: 3 (inferred, trimer by FPLC); label: 5' biotin
T1 sequence: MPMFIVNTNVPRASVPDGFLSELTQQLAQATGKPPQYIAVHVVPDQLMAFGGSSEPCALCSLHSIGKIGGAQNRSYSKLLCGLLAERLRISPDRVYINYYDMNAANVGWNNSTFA
Method: In parallel with the ssDNA studies, MIF was tested to see if it binds to dsDNA using PS³⁰, poly A, PS³⁰ sequence-related substrates (5′bPS³⁰, 5′bSL, 5′bLF, 5′bRF, 5′bPA³⁰, and 5′bPASE) as well as non-related sequences (PCS and 5′bL3) (FIG. 3B and FIG. 19).
(§1) EMSA assay was performed using LightShift Chemiluminescent EMSA kit (Thermo Scientific) following the manufactures instruction. Briefly, purified MIF protein (2 μM) was incubated with biotin-labeled DNA substrates (10 nM) in the binding buffer containing 10 mM MgCl₂ for […] on ice. Then samples were separated on 6% retardation polyacrylamide followed by electrophoretic transfer to nylon membrane.

MIF D17A = molecular target: T2, MIF D17A (Homo sapiens, UniProt P14174 P14174:1-115, D17A); assay: EMSA; 10 mM Mg2+; text prints P17A; details: tags: GST tag removed; chain copies: 3; label: 5' biotin; stem loop with unpaired 5' and 3' bases
T2 sequence: T1 sequence with D17A
Method: (§2) Both single stranded and double stranded forms of two classes of MIF DNA binding motifs were examined for MIF binding and cleavage specificity. The ssPS³⁰ sequence was synthesized with a 5′ biotin label and subjected to an electrophoretic mobility shift assay (EMSA) (FIG. 18C).
as §1

MIF D17Q = molecular target: T3, MIF D17Q (Homo sapiens, UniProt P14174 P14174:1-115, D17Q); assay: EMSA; 10 mM Mg2+; text prints P17Q; details: tags: GST tag removed; chain copies: 3; label: 5' biotin; stem loop with unpaired 5' and 3' bases
T3 sequence: T1 sequence with D17Q
Method: as §2, §1

MIF E22Q = molecular target: T4, MIF E22Q (Homo sapiens, UniProt P14174 P14174:1-115, E22Q); assay: EMSA; 10 mM Mg2+; details: tags: GST tag removed; chain copies: 3 (inferred); label: 5' biotin; stem loop with unpaired 5' and 3' bases
T4 sequence: T1 sequence with E22Q
Method: as §2, §1

MIF E22A = molecular target: T5, MIF E22A (Homo sapiens, UniProt P14174 P14174:1-115, E22A); assay: EMSA; 10 mM Mg2+; details: tags: GST tag removed; chain copies: 3 (inferred); label: 5' biotin; stem loop with unpaired 5' and 3' bases
T5 sequence: T1 sequence with E22A
Method: as §2, §1

MIF P16A = molecular target: T6, MIF P16A (Homo sapiens, UniProt P14174 P14174:1-115, P16A); assay: EMSA; 10 mM Mg2+; details: tags: GST tag removed; chain copies: 3; label: 5' biotin; stem loop with unpaired 5' and 3' bases
T6 sequence: T1 sequence with P16A
Method: as §2, §1

MIF [2] = molecular target: T1, MIF; assay: EMSA; 10 mM Mg2+; no obvious effect vs PS30; details: tags: GST tag removed (pGex-6P-1); chain copies: 3 (inferred, trimer by FPLC); label: 5' biotin; stem loop, no 3' unpaired bases
Method: 5′ biotin labeled ssPS³⁰ and its sequence-related substrates with different structures by removing unpaired bases at the 5′ end, 3′ end, both 5′ and 3′ ends or eliminating the stem loop were used in the EMSA (FIG. 3B, and FIG. 19).
EMSA assay was performed using LightShift Chemiluminescent EMSA kit (Thermo Scientific) following the manufactures instruction. Briefly, purified MIF protein (2 μM) was incubated with biotin-labeled DNA substrates (10 nM) in the binding buffer containing 10 mM MgCl₂ for 30 mM on ice. Then samples were separated on 6% retardation polyacrylamide followed by electrophoretic transfer to nylon membrane. Then, Biotin-labeled DNA is further detected by chemiluminescence using Chemiluminescent Nucleic Acid Detection Module (Thermo Scientific).

MIF [3] = molecular target: T1, MIF; assay: EMSA; 10 mM Mg2+; details: tags: GST tag removed (pGex-6P-1); chain copies: 3 (inferred, trimer by FPLC); label: 5' biotin; stem loop, 1 unpaired 3' base

B1: dsPA30 (dsDNA)
DNA 1: AAAAAAAAAAAAAAAAAAAAAAAAAAAAAA
DNA 2: TTTTTTTTTTTTTTTTTTTTTTTTTTTTTT
MIF [1]
  binding result: no binding

B2: dsPS30 (dsDNA)
DNA 1: CTCAGCCTCCCAAGTAGCTGGGATTACAGG
DNA 2: CCTGTAATCCCAGCTACTTGGGAGGCTGAG
MIF [1]
  binding result: no binding

B3: dsRF (dsDNA)
DNA 1: TCCCAAGTAGCTGGGATTACAGGAAAAAAA
DNA 2: TTTTTTTCCTGTAATCCCAGCTACTTGGGA
MIF [1]
  binding result: no binding

B4: dsL3 (dsDNA)
DNA 1: ACCTAAATGCTAGAGCTCGCTGATCAGCCT
DNA 2: AGGCTGATCAGCGAGCTCTAGCATTTAGGT
MIF [1]
  binding result: no binding

B5: dsLF (dsDNA)
DNA 1: AAAAAAACTCAGCCTCCCAAGTAGCTGGGA
DNA 2: TCCCAGCTACTTGGGAGGCTGAGTTTTTTT
MIF [1]
  binding result: no binding

## CTCAGCCTCCCAAGTAGCTGGGATTACAGG (ssDNA) [PS30]
MIF D17A
  binding result: binds
MIF D17Q
  binding result: binds
MIF E22Q
  binding result: binds
MIF E22A
  binding result: binds
MIF P16A
  binding result: binds

B6: dsSL (dsDNA)
DNA 1: CCTGTAATCCCAAGTAGCTGGGATTACAGG
DNA 2: CCTGTAATCCCAGCTACTTGGGATTACAGG
MIF [1]
  binding result: no binding

## AAAAAAACTCAGCCTCCCAAGTAGCTGGGA (ssDNA) [LF]
MIF [2]
  binding result: binds

## AAAAAAAAAACAAGTAGCTGGGATTACAGG (ssDNA) [3F1]
MIF [3]
  binding result: binds
